Reference: patent publication US20240270813A1 (UNIVERSITY OF PITTSBURGH OF THE COMMONWEALTH SYSTEM OF …, published 2024)
Where “and” joins values, the source holds several entries; their conditions need not be identical. Equal entries are not always repeated.

T1: minor histocompatibility antigen HA-1, immunogenic H variant peptide on HLA-A*02:01 (human)
T1 peptide: VLHDDLLEA


What was measured:
[1] = molecular target: T1, minor histocompatibility antigen HA-1, …; assay: multimer staining
[2] = molecular target: T2, HA-1 “H” peptide (…) presented by HLA-A*02:01 on antigen presenting cells (human); assay: cell-based or functional assay
[3] = molecular target: T2, HA-1 “H” peptide (…) presented by …; assay: cell-based or functional assay; remark: listed apart in the source

Row | Binder | EC50 values for CD69 Expression [2] | also measured
1 | TCR AC (TCR, V domains shown) Valpha: SQQGEEDPQALSIQEGENATMNCSYKTSINNLQWYRQNSGRGLVHLILIRSNEREKHSGRLRVTLDTSKKSSSLLITASRAADTASYFCAKNDMRFGAGTRLTVKP Vbeta: DTGVSQNPRHKITKRGQNVTFRCDPISEHNRLYWYRQTLGQGPEFLTYFQNEAQLEKSRLLSDRFSAERPKGSFSTLEIQRTEQGDSAMYLCASSLLVGETQYFGPGTRLLVL |  | binding result [1]: recognises
2 | TCR AD (TCR, V domains shown) Valpha: SQQGEEDPQALSIQEGENATMNCSYKTSINNLQWYRQNSGRGLVHLILIRSNEREKHSGRLRVTLDTSKKSSSLLITASRAADTASYFCATVPTDYMYSGGGADGLTFGKGTHLIIQP Vbeta: DTGVSQNPRHKITKRGQNVTFRCDPISEHNRLYWYRQTLGQGPEFLTYFQNEAQLEKSRLLSDRFSAERPKGSFSTLEIQRTEQGDSAMYLCASSLVRLDGYTFGSGTRLTVV |  | binding result [1]: recognises
3 | TCR AB (TCR, V domains shown) V domain 1: AQSVAQPEDQVNVAEGNPLTVKCTYSVSGNPYLFWYVQYPNRGLQFLLKYITGDNLVKGSYGFEAEFNKSQTSFHLKKPSALVSDSALYFCAVRVPTGGYQKVTFGIGTKLQVIP V domain 2: DTGVSQNPRHKITKRGQNVTFRCDPISEHNRLYWYRQTLGQGPEFLTYFQNEAQLEKSRLLSDRFSAERPKGSFSTLEIQRTEQGDSAMYLCASKLTDTQYFGPGTRLTVLE | 40.2 ng/mL | 
4 | TCR AB (TCR, V domains shown) Valpha: AQSVAQPEDQVNVAEGNPLTVKCTYSVSGNPYLFWYVQYPNRGLQFLLKYITGDNLVKGSYGFEAEFNKSQTSFHLKKPSALVSDSALYFCAVRVPTGGYQKVTFGIGTKLQVIP Vbeta: DTGVSQNPRHKITKRGQNVTFRCDPISEHNRLYWYRQTLGQGPEFLTYFQNEAQLEKSRLLSDRFSAERPKGSFSTLEIQRTEQGDSAMYLCASKLTDTQYFGPGTRLTVL |  | binding result [1]: recognises
5 | TCR A (TCR, V domains shown) V domain 1: AQSVAQPEDQVNVAEGNPLTVKCTYSVSGNPYLFWYVQYPNRGLQFLLKYITGDNLVKGSYGFEAEFNKSQTSFHLKKPSALVSDSALYFCAVRGGSYKYIFGTGTRLKVLA V domain 2: DTGVSQDPRHKITKRGQNVTFRCDPISEHNRLYWYRQTLGQGPEFLTYFQNEAQLEKSRLLSDRFSAERPKGSFSTLEIQRTEQGDSAMYLCASTPGTVYNEQFFGPGTRLTVLE |  | EC50 for CD69 Expression [3]: < 10 ng/mL and < 10 nM
6 | TCR AJ (TCR, V domains shown) V domain 1: EDQVTQSPEALRLQEGESSSLNCSYTVSGLRGLFWYRQDPGKGPEFLFTLYSAGEEKEKERLKATLTKKESFLHITAPKPEDSATYLCAVHSNAGGTSYGKLTFGQGTILTVHP V domain 2: DAGVTQSPTHLIKTRGQHVTLRCSPISGHKSVSWYQQVLGQGPQFIFQYYEKEERGRGNFPDRFSARQFPNYSSELNVNALLLGDSALYLCASSADRGSPLHFGNGTRLTVTE | 5 ng/mL | 
7 | TCR AJ (TCR, V domains shown) Valpha: EDQVTQSPEALRLQEGESSSLNCSYTVSGLRGLFWYRQDPGKGPEFLFTLYSAGEEKEKERLKATLTKKESFLHITAPKPEDSATYLCAVHSNAGGTSYGKLTFGQGTILTVHP Vbeta: DAGVTQSPTHLIKTRGQHVTLRCSPISGHKSVSWYQQVLGQGPQFIFQYYEKEERGRGNFPDRFSARQFPNYSSELNVNALLLGDSALYLCASSADRGSPLHFGNGTRLTVT |  | binding result [1]: recognises
8 | TCR AC (TCR, V domains shown) V domain 1: SQQGEEDPQALSIQEGENATMNCSYKTSINNLQWYRQNSGRGLVHLILIRSNEREKHSGRLRVTLDTSKKSSSLLITASRAADTASYFCAKNDMRFGAGTRLTVKP V domain 2: DTGVSQNPRHKITKRGQNVTFRCDPISEHNRLYWYRQTLGQGPEFLTYFQNEAQLEKSRLLSDRFSAERPKGSFSTLEIQRTEQGDSAMYLCASSLLVGETQYFGPGTRLLVLE | 0.9 ng/mL | 
9 | TCR AA (TCR, V domains shown) V domain 1: QQQVKQSPQSLIVQKGGISIINCAYENTAFDYFPWYQQFPGKGPALLIAIRPDVSEKKEGRFTISFNKSAKQFSLHIMDSQPGDSATYFCAASSPGTYKYIFGTGTRLKVLA V domain 2: DTGVSQDPRHKITKRGQNVTFRCDPISEHNRLYWYRQTLGQGPEFLTYFQNEAQLEKSRLLSDRFSAERPKGSFSTLEIQRTEQGDSAMYLCASSLLKNTEAFFGQGTRLTVVE | 1.1 ng/mL | 
10 | TCR AD (TCR, V domains shown) V domain 1: SQQGEEDPQALSIQEGENATMNCSYKTSINNLQWYRQNSGRGLVHLILIRSNEREKHSGRLRVTLDTSKKSSSLLITASRAADTASYFCATVPTDYMYSGGGADGLTFGKGTHLIIQP V domain 2: DTGVSQNPRHKITKRGQNVTFRCDPISEHNRLYWYRQTLGQGPEFLTYFQNEAQLEKSRLLSDRFSAERPKGSFSTLEIQRTEQGDSAMYLCASSLVRLDGYTFGSGTRLTVVE | 4.9 ng/mL | 

Now from value to binder, other results behind:

Row | EC50 values for CD69 Expression [2] | Binder | also measured
11 | 125 ng/mL | TCR V (TCR, V domains shown) V domain 1: AQTVTQSQPEMSVQEAETVTLSCTYDTSENNYYLFWYKQPPSRQMILVIRQEAYKQQNATENRFSVNFQKAAKSFSLKISDSQLGDTAMYFCALYSGAGSYQLTFGKGTKLSVIP V domain 2: DTGVSQDPRHKITKRGQNVTFRCDPISEHNRLYWYRQTLGQGPEFLTYFQNEAQLEKSRLLSDRFSAERPKGSFSTLEIQRTEQGDSAMYLCASSLAAGMNTEAFFGQGTRLTVVE | 
12 | 7.18 ng/mL | TCR W (TCR, V domains shown) V domain 1: AQSVAQPEDQVNVAEGNPLTVKCTYSVSGNPYLFWYVQYPNRGLQFLLKYITGDNLVKGSYGFEAEFNKSQTSFHLKKPSALVSDSALYFCAVRDPTSGTYKYIFGTGTRLKVLA V domain 2: DTGVSQDPRHKITKRGQNVTFRCDPISEHNRLYWYRQTLGQGPEFLTYFQNEAQLEKSRLLSDRFSAERPKGSFSTLEIQRTEQGDSAMYLCASSLVQGNEQFFGPGTRLTVLE | 
13 | 1.5 ng/mL | TCR Z (TCR, V domains shown) V domain 1: QQVMQIPQYQHVQEGEDFTTYCNSSTTLSNIQWYKQRPGGHPVFLIQLVKSGEVKKQKRLTFQFGEAKKNSSLHITATQTTDVGTYFCAGPKGNTPLVFGKGTRLSVIA V domain 2: DTGVSQDPRHKITKRGQNVTFRCDPISEHNRLYWYRQTLGQGPEFLTYFQNEAQLEKSRLLSDRFSAERPKGSFSTLEIQRTEQGDSAMYLCASSLTVSYEQYFGPGTRLTVTE | 
14 | 10.8 ng/mL | TCR Y (TCR, V domains shown) V domain 1: SQQGEEDPQALSIQEGENATMNCSYKTSINNLQWYRQNSGRGLVHLILIRSNEREKHSGRLRVTLDTSKKSSSLLITASRAADTASYFCATAYSGGGADGLTFGKGTHLIIQP V domain 2: DTGVSQNPRHKITKRGQNVTFRCDPISEHNRLYWYRQTLGQGPEFLTYFQNEAQLEKSRLLSDRFSAERPKGSFSTLEIQRTEQGDSAMYLCASSLIRAEKLFFGSGTQLSVLE | 
15 | 23.6 ng/mL | TCR X (TCR, V domains shown) V domain 1: GENVEQHPSTLSVQEGDSAVIKCTYSDSASNYFPWYKQELGKRPQLIIDIRSNVGEKKDQRIAVTLNKTAKHFSLHITETQPEDSAVYFCVVLGGAGNMLTFGGGTRLMVKP V domain 2: DTGVSQDPRHKITKRGQNVTFRCDPISEHNRLYWYRQTLGQGPEFLTYFQNEAQLEKSRLLSDRFSAERPKGSFSTLEIQRTEQGDSAMYLCASSLTVSDGYTFGSGTRLTVVE | 
